The values below come from article PMC8451464.

The assay has as its target papain (UniProt P00784).
Sequence of UniProt P00784 (P00784 134-345): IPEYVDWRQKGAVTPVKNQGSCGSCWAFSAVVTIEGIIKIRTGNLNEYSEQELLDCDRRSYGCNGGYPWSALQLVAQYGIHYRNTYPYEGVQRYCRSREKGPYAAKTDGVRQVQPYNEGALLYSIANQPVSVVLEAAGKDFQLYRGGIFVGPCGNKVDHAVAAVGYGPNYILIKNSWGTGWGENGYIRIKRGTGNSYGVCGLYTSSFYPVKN

The substance His-SSPbP53 (natural protein) had a degradation of fluorescein-labeled casein by papain (100 μg/mL) with His-SSPbP53 at 100 and 500 nM, 1 h at room temperature (% reduction of activity) of over 50.
